# Experimental data published in article PMC3656090 (PLoS Pathogens, 2013).
# T1: synthetic peptide comprising the epitope II region (residues 434-446) of HCV E2, strain H77 (Hepatitis C virus, strain H77)
# T1 chain: NTGWLAGLFYQHK
# Target: T1, synthetic peptide comprising the …
# Assay: crystal structure; Fab 10 mg/ml + epitope II peptide (0.9 mg/ml for HC84-1, 1.5 mg/ml for HC84-27), complex formed overnight at 277 K; crystals at 293 K, hanging drop, 10 mM TRIS pH 8.0, 150 mM NaCl
# Conditions: both partners purified
binder,measurement,value
"Fab fragment of human monoclonal antibody HC84-27 (Fab, V domains shown) VH: QVTLKESGAEVKKPGSSVKVSCEASGGTLSNYVITWVRQAPGQGLEWMGGFIPTFRTAMYAQGFQGRVTITADESTSIAYMELTNLRSEDTAVYYCARGPLSRGYYDYWGQGTLVTVSS VL: SYVLTQPPSVSVSPGQTARITCSGDKLGDKYASWYQQKPGQSPVLVIYQDNKRPSEIPARFSGSNSGNTATLTISGAQAMDEADYYCQAWDSNTGVFGTGTKLTVL",binding result,binds
